From US20230265151A1, “GIP/GLP1 CO-AGONIST COMPOUNDS” (priority 2020, published 2023)
Residue numbers refer to the chain shown, from its start. *1 amine or outer side, *2 acyl side, *3 side chain or, on linkers, in order; H or OH if unused. Where no end group is shown, it is not given here. Side-chain parts run from the residue outwards. [ ]: non-standard residue; d: D form. The star is where a group is joined. αMePhe(2-F) = C[C@](N)(Cc1ccccc1F)C(=O)O; γGlu = O=C(O)[C@H](CCC(=O)[*:2])N[*:1]; C14 diacid = O=C(O)CCCCCCCCCCCCC(=O)*; αMeY = C[C@](N)(Cc1ccc(O)cc1)C(=O)O; αMeL = CC(C)C[C@](C)(N)C(=O)O; Orn = NCCC[C@H](N)C(=O)O; AEEA = NCCOCCOCC(=O)O; Aib = CC(C)(N)C(=O)O

T1: human GIP receptor (human, UniProt P48546 22-466)
T1 sequence (looked up): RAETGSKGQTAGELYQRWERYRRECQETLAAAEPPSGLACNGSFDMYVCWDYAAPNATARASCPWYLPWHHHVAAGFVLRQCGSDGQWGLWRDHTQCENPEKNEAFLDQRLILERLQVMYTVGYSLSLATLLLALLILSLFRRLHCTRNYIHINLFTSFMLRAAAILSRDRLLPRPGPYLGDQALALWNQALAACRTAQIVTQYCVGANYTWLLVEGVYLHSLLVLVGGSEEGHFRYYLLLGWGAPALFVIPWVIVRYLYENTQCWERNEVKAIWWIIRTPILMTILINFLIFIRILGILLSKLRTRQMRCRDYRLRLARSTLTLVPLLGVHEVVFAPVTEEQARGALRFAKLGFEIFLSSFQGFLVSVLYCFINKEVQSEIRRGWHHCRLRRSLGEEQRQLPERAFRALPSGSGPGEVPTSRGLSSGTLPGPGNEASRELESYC

B1: Example 317 (peptide)
peptide: Y[Aib]EGT[αMePhe(2-F)]TSDV[Aib]I[αMeL]LD[Orn]IAQ[Aib][Orn]FIK([AEEA-AEEA-γGlu-C14 diacid])[αMeY]LIK([AEEA-AEEA-γGlu-C14 diacid])GGPSSGAPPPS-NH2
B2: Example 288 (peptide)
peptide: YXEGTXTSDXSIXLDXIAQXKFIXXLIEGGPSSGAPPPSK
modifications: Y-Aib-EGT-αMeF(2F)-TSD-4Pal-SI-αMeL-LD-Orn-IAQ-Aib-K(2-[2-(2-Amino-ethoxy)-ethoxy]-acetyl)2-(γ-Glu)-(11-(4-carboxyphenoxy)undecanoyl)FI-(D-Glu)-αMeY-LIEGGPSSGAPPPSK((2-[2-(2-Amino-ethoxy)-ethoxy]-acetyl)2-(γ-Glu)-(11-(4-carboxyphenoxy)undecanoyl)-NH2)
B3: Example 291 (peptide)
peptide: B2 peptide with I17K, K21E
modifications: Y-Aib-EGT-αMeF(2F)-TSD-OMeY-SI-αMeL-LD-Orn-K((2-[2-(2-Amino-ethoxy)-ethoxy]-acetyl)2-(γ-Glu)-CO-(CH2)10-CH3)AQ-Aib-EFI-(D-Glu)-αMeY-LIEGGPSSGAPPPSK((2-[2-(2-Amino-ethoxy)-ethoxy]-acetyl)2-(γ-Glu)-CO-(CH2)10-CH3)-NH2
B4: Example 286 (peptide)
peptide: YXEGTXTSDXSIXLDXIAQXEFIKXLIKGGPSSGAPPPS
modifications: Y-Aib-EGT-αMeF(2F)-TSD-4Pal-SI-αMeL-LD-Orn-IAQ-Aib-EFIK(2-[2-(2-Amino-ethoxy)-ethoxy]-acetyl)2-(γ-Glu)-(11-(4-carboxyphenoxy)undecanoyl)-αMeY-LIK((2-[2-(2-Amino-ethoxy)-ethoxy]-acetyl)2-(γ-Glu)-(11-(4-carboxyphenoxy)undecanoyl)GGPSSGAPPPS-NH2)
B5: Example 320 (peptide)
peptide: B4 peptide with I17K, E21K, K24X, K28E
modifications: Y-Aib-EGT-αMeF(2F)-TSD-hTyr-SI-αMeL-LD-Orn-K((2-[2-(2-Amino-ethoxy)-ethoxy]-acetyl)2-(y-Glu)-(10-(4-carboxyphenoxy)decanoyl))AQ-Aib-K((2-[2-(2-Amino-ethoxy)-ethoxy]-acetyl)2-(γ-Glu)-(10-(4-carboxyphenoxy)decanoyl))FI-(D-Glu)-αMeY-LIEGGPSSGAPPPS-NH2
B6: Example 342 (peptide)
peptide: B4 peptide with S11X
modifications: Y-Aib-EGT-αMeF(2F)-TSD-4Pal-Aib-I-αMeL-LD-Orn-IAQ-Aib-EFIK((2-[2-(2-Amino-ethoxy)-ethoxy]-acetyl)3-(γ-Glu)-CO-(CH2)12-CO2H)-αMeY-LIK((2-[2-(2-Amino-ethoxy)-ethoxy]-acetyl)3-(γ-Glu)-CO-(CH2)12-CO2H)GGPSSGAPPPS-NH2
B7: Example 303 (peptide)
peptide: B4 peptide with X10Y, S11X
modifications: Y-Aib-EGT-αMeF(2F)-TSDY-αMeS-I-αMeL-LD-Orn-IAQ-Aib-EFIK((2-[2-(2-Amino-ethoxy)-ethoxy]-acetyl)2-(γ-Glu)-CO-(CH2)12-CO2H)-αMeY-LIK((2-[2-(2-Amino-ethoxy)-ethoxy]-acetyl)2-(γ-Glu)-CO-(CH2)12-CO2H)GGPSSGAPPPS-NH2
B8: Example 332 (peptide)
peptide: B4 peptide with E21K, K24X
modifications: Y-Aib-EGT-αMeF(2F)-TSD-hTyr-SI-αMeL-LD-Orn-IAQ-Aib-K((2-[2-(2-Amino-ethoxy)-ethoxy]-acetyl)2-(γ-Glu)-(10-(4-carboxyphenoxy)decanoyl))FI-(D-Glu)-αMeY-LIK((2-[2-(2-Amino-ethoxy)-ethoxy]-acetyl)2-(γ-Glu)-(10-(4-carboxyphenoxy)decanoyl))GGPSSGAPPPS-NH2
B9: Example 335 (peptide)
peptide: B4 peptide with I17K, K24X
modifications: Y-Aib-EGT-αMeF(2F)-TSD-hTyr-SI-αMeL-LD-Orn-K((2-[2-(2-Amino-ethoxy)-ethoxy]-acetyl)2-(γ-Glu)-CO-(CH2)10-CH3)AQ-Aib-EFI-(D-Glu)-αMeY-LIK((2-[2-(2-Amino-ethoxy)-ethoxy]-acetyl)2-(γ-Glu)-CO-(CH2)10-CH3)GGPSSGAPPPS-NH2
B10: Example 323 (peptide)
peptide: B4 peptide with I17K, E21K, K24X, K28E
modifications: Y-Aib-EGT-αMeF(2F)-TSD-hTyr-SI-αMeL-LD-Orn-K((2-[2-(2-Amino-ethoxy)-ethoxy]-acetyl)2-(γ-Glu)-CO-(CH2)10-CH3)AQ-Aib-K((2-[2-(2-Amino-ethoxy)-ethoxy]-acetyl)2-(γ-Glu)-CO-(CH2)10-CH3)FI-(D-Glu)-αMeY-LIEGGPSSGAPPPS-NH2
B11: Example 343 (peptide)
peptide: B4 peptide with X10Y, S11X
modifications: Y-Aib-EGT-αMeF(2F)-TSDY-Aib-I-αMeL-LD-Orn-IAQ-Aib-EFIK((2-[2-(2-Amino-ethoxy)-ethoxy]-acetyl)3-(γ-Glu)-CO-(CH2)12-CO2H)-αMeY-LIK((2-[2-(2-Amino-ethoxy)-ethoxy]-acetyl)3-(γ-Glu)-CO-(CH2)12-CO2H)GGPSSGAPPPS-NH2
B12: Example 311 (peptide)
peptide: B4 peptide with S11X
modifications: Y-Aib-EGT-αMeF(2F)-TSD-4Pal-Aib-I-αMeL-LD-Orn-IAQ-Aib-EFIK(2-[2-(2-Amino-ethoxy)-ethoxy]-acetyl)2-(γ-Glu)-(11-(4-carboxyphenoxy)undecanoyl)-αMeY-LIK((2-[2-(2-Amino-ethoxy)-ethoxy]-acetyl)2-(γ-Glu)-(11-(4-carboxyphenoxy)undecanoyl)GGPSSGAPPPS-NH2)
B13: Example 328 (peptide)
peptide: B4 peptide with I17K, K24X
modifications: Y-Aib-EGT-αMeF(2F)-TSD-Nle-SI-αMeL-LD-Orn-K((2-[2-(2-Amino-ethoxy)-ethoxy]-acetyl)2-(γ-Glu)-(10-(4-carboxyphenoxy)decanoyl))AQ-Aib-EFI-(D-Glu)-αMeY-LIK((2-[2-(2-Amino-ethoxy)-ethoxy]-acetyl)2-(γ-Glu)-(10-(4-carboxyphenoxy)decanoyl))GGPSSGAPPPS-NH2
B14: Example 327 (peptide)
peptide: B4 peptide with I17K, K24X
modifications: Y-Aib-EGT-αMeF(2F)-TSD-hTyr-SI-αMeL-LD-Orn-K((2-[2-(2-Amino-ethoxy)-ethoxy]-acetyl)2-(γ-Glu)-(10-(4-carboxyphenoxy)decanoyl))AQ-Aib-EFI-(D-Glu)-αMeY-LIK((2-[2-(2-Amino-ethoxy)-ethoxy]-acetyl)2-(γ-Glu)-(10-(4-carboxyphenoxy)decanoyl))GGPSSGAPPPS-NH2

Each binder was assayed against human glucagon receptor (human, UniProt P47871 26-477) (assay: cell-based or functional assay).

B1 and B2 cannot be ordered by “cAMP EC50 (1.0% HSA)” value: greater than 9950 nM for the first, greater than 9950 nM for the second.

B3 and B4 cannot be ordered by “cAMP EC50 (1.0% HSA)” value: greater than 9950 nM for the first, greater than 9950 nM for the second.

B5 and B6 cannot be ordered by “cAMP EC50 (1.0% HSA)” value: greater than 9950 nM for the first, greater than 9950 nM for the second.

B7 and B8 cannot be ordered by “cAMP EC50 (1.0% HSA)” value: greater than 9950 nM for the first, greater than 9950 nM for the second.

B9 and B10 cannot be ordered by “cAMP EC50 (1.0% HSA)” value: greater than 9950 nM for the first, greater than 9950 nM for the second.

B11 and B12 cannot be ordered by “cAMP EC50 (1.0% HSA)” value: greater than 9950 nM for the first, greater than 9950 nM for the second.

B13 and B14 cannot be ordered by “cAMP EC50 (1.0% HSA)” value: greater than 9950 nM for the first, greater than 9950 nM for the second.

What follows are binders tested against T1, human GIP receptor (assay: cell-based or functional assay).

Compared with B1, B2 is 4.2-fold lower in “cAMP EC50 (1.0% HSA)” value: 2.03 nM for the first, 0.48 nM for the second.

Going from B3 to B4, the “cAMP EC50 (1.0% HSA)” value rises from 0.833 nM to 2.18 nM (2.6-fold).

Compared with B5, B6 is 3.1-fold higher in “cAMP EC50 (1.0% HSA)” value: 0.338 nM for the first, 1.04 nM for the second.

Going from B7 to B8, the “cAMP EC50 (1.0% HSA)” value rises from 2 nM to 4.59 nM (2.3-fold).

B9 and B10 are within 1.5-fold of each other in “cAMP EC50 (1.0% HSA)” value: 1.04 nM for the first, 0.694 nM for the second.

B11 and B12 are within 1.5-fold of each other in “cAMP EC50 (1.0% HSA)” value: 2.38 nM for the first, 2.16 nM for the second.

B13 and B14 are within 1.5-fold of each other in “cAMP EC50 (1.0% HSA)” value: 0.75 nM for the first, 0.751 nM for the second.

Compared with B1, B2 is higher in “cAMP Emax (1.0% HSA)” value: 84.4% for the first, 85.2% for the second.

First: B5
Second: B7
The “cAMP Emax (1.0% HSA)” value of the first is lower: 84.1% for the first, 89.8% for the second.

Going from B11 to B12, the “cAMP Emax (1.0% HSA)” value rises from 90.2% to 98.3%.

What follows are binders tested against human GLP-1 receptor (human, UniProt P43220 24-463) (assay: cell-based or functional assay).

First: B1
Second: B2
The “cAMP EC50 (1.0% HSA)” value of the first is 1.7-fold higher: 29.5 nM for the first, 17.1 nM for the second.

Compared with B3, B4 is 4.7-fold higher in “cAMP EC50 (1.0% HSA)” value: 7.43 nM for the first, 35 nM for the second.

First: B5
Second: B6
The “cAMP EC50 (1.0% HSA)” value of the first is 2.2-fold lower: 6.22 nM for the first, 13.6 nM for the second.

Going from B7 to B8, the “cAMP EC50 (1.0% HSA)” value falls from 50.4 nM to 33.3 nM (1.5-fold).

B9 and B10 are within 1.5-fold of each other in “cAMP EC50 (1.0% HSA)” value: 12.3 nM for the first, 9.52 nM for the second.

Compared with B11, B12 is 1.7-fold higher in “cAMP EC50 (1.0% HSA)” value: 20.2 nM for the first, 33.8 nM for the second.

First: B13
Second: B14
The “cAMP EC50 (1.0% HSA)” value of the first is 1.7-fold higher: 23.3 nM for the first, 13.6 nM for the second.

Going from B2 to B4, the “cAMP Emax (1.0% HSA)” value falls from 123% to 90.3%.

First: B8
Second: B11
The “cAMP Emax (1.0% HSA)” value of the first is higher: 116% for the first, 98.2% for the second.
